# From FireProtDB (doi:10.1002/pro.343)
# B1: Multidrug resistance operon repressor, P52003 (parent)
# chain: MNYPVNPDLMPALMAVFQHVRTRIQSELDCQRLDLTPPDVHVLKLIDEQRGLNLQDLGRQMCRDKALITRKIRELEGRNLVRRERNPSDQRSFQLFLTDEGLAIHQHAEAIMSRVHDELFAPLTPVEQATLVHLLDQCLAAQPLEDI
# Variants of: B1
# Settings: Pseudomonas aeruginosa (strain ATCC 15692 / DSM 22644 / CIP 104116 / JCM 14847 / LMG 12228 / 1C / PRS 101 / PAO1); pH 7.2; 22 °C; GdnHCl; CD; Sodium phosphate 10 mM; transition: 3; structure 1LNW; whole UniProt chain shown
row,Variant,denaturant midpoint (higher = more stable)
1,MNYPVNPDLMPALMAVFQHVWTRIQSELDCQRLDLTPPDVHVLKLIDEQRGLNLQDLGRQMCRDKALITRKIRELEGRNLVRRERNPSDQRSFQLFLTDEGLAIHQHAEAIMSRVHDELFAPLTPVEQATLVHLLDQCLAAQPLEDI [R21W],2.6 M

# Same assay, conditions: Pseudomonas aeruginosa (strain ATCC 15692 / DSM 22644 / CIP 104116 / JCM 14847 / LMG 12228 / 1C / PRS 101 / PAO1); pH 7.2; Thermal; CD; Sodium phosphate 10 mM; structure 1LNW; whole UniProt chain shown
row,Variant,Tm
1,MNYPVNPDLMPAMMAVFQHVRTRIQSELDCQRLDLTPPDVHVLKLIDEQRGLNLQDLGRQMCRDKALITRKIRELEGRNLVRRERNPSDQRSFQLFLTDEGLAIHQHAEAIMSRVHDELFAPLTPVEQATLVHLLDQCLAAQPLEDI [L13M],47.8 °C
